Experimental data taken from paper doi:10.1101/2021.07.28.453719 (bioRxiv, 2021).
No end group written: not given here.

How the values were obtained:
[1] = target: first bromodomain (BD1) of BRD4, wild type (human, UniProt O60885); assay: ITC
[2] = target: first bromodomain (BD1) of BRD3, wild type (human, UniProt Q15059); assay: ITC
Chain of first bromodomain (BD1) of BRD3, wild type (Q15059 24-144): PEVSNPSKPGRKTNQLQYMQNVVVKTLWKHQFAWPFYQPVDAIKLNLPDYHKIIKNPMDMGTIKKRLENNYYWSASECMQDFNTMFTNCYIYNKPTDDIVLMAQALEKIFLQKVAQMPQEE

| Kd [1] [µM] | binding result [2] | Binder |
| --- | --- | --- |
| 167 ± 28 | binds | AK(Ac)GLLLK(Ac)G [diacetylated ILF3 peptide 10 (AKacGLLLKacG)] |
| 60 ± 10 |  | AK(Ac)GALLK(Ac)G [ILF3 variant peptide AKacGALLKacG (aa 99-106) 15 carrying L102A] |
